The values that follow come from paper doi:10.1101/699223 (bioRxiv, 2019).

Numbering of substitutions follows the chain as printed.

Test [1] deals with T1, human BBS2 (Bardet-Biedl syndrome protein 2), wild type, HPC4- and c-Myc-tagged (human, UniProt Q9BXC9 1-721).
T1 sequence (looked up): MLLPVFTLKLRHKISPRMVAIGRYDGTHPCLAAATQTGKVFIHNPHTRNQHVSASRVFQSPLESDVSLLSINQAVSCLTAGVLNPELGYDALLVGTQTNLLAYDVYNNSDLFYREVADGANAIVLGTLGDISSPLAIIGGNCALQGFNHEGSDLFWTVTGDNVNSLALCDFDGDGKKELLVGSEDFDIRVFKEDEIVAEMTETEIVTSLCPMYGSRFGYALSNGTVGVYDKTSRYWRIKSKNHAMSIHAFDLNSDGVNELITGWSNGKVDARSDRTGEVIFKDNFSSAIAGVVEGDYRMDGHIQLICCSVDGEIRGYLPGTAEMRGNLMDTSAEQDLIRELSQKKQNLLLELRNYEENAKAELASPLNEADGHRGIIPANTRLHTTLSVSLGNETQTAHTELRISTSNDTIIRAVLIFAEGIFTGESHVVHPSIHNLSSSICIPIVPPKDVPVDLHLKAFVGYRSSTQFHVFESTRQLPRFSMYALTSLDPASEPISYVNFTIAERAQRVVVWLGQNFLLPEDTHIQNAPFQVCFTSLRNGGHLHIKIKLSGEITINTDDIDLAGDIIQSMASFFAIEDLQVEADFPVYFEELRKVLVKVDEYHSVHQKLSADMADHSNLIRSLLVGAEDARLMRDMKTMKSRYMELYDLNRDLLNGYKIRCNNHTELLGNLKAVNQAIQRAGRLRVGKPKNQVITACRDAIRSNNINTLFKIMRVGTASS
Kind of test: pull-down.

In test [2] the target is T2, human BBS2 L349W, c-Myc-tagged (human, UniProt Q9BXC9 1-721, L349W).
T2 sequence (looked up): T1 sequence (looked up) with L349W
Put plainly: co-IP.

B1: human BBS7 (Bardet-Biedl syndrome protein 7), wild type, Flag-Strep-tagged (natural protein, UniProt Q8IWZ6 1-715, looked up)
chain: MDLILNRMDYLQVGVTSQKTMKLIPASRHRATQKVVIGDHDGVVMCFGMKKGEAAAVFKTLPGPKIARLELGGVINTPQEKIFIAAASEIRGFTKRGKQFLSFETNLTESIKAMHISGSDLFLSASYIYNHYCDCKDQHYYLSGDKINDVICLPVERLSRITPVLACQDRVLRVLQGSDVMYAVEVPGPPTVLALHNGNGGDSGEDLLFGTSDGKLALIQITTSKPVRKWEIQNEKKRGGILCIDSFDIVGDGVKDLLVGRDDGMVEVYSFDNANEPVLRFDQMLSESVTSIQGGCVGKDSYDEIVVSTYSGWVTGLTTEPIHKESGPGEELKINQEMQNKISSLRNELEHLQYKVLQERENYQQSSQSSKAKSAVPSFGINDKFTLNKDDASYSLILEVQTAIDNVLIQSDVPIDLLDVDKNSAVVSFSSCDSESNDNFLLATYRCQADTTRLELKIRSIEGQYGTLQAYVTPRIQPKTCQVRQYHIKPLSLHQRTHFIDHDRPMNTLTLTGQFSFAEVHSWVVFCLPEVPEKPPAGECVTFYFQNTFLDTQLESTYRKGEGVFKSDNISTISILKDVLSKEATKRKINLNISYEINEVSVKHTLKLIHPKLEYQLLLAKKVQLIDALKELQIHEGNTNFLIPEYHCILEEADHLQEEYKKQPAHLERLYGMITDLFIDKFKFKGTNVKTKVPLLLEILDSYDQNALISFFDAA
As to B1, in test [1], the binding result is given as “binds”. For the same molecule, in test [2], the “decrease in binding relative to WT” value was determined as 30%.
